Results: patent US6403765B1, “Truncated Apaf-1 and methods of use thereof” (Thomas Jefferson University, priority 1998, dated 2002)
Numbering of substitutions follows the chain as printed. Names and notes keep the numbering of the source.

Key:
MCF-7 cells = assay: Inhibition of apoptosis in transfected MCF-7 cells; format: cell-based; settings: apoptosis induced by UV, Fas agonist antibody
Description: To express the caspases or truncated Apaf-1 in mammalian cells and assay their apoptotic activity, they were amplified with the T7-tag primer and reverse primers using the pET28a constructs as templates, and subcloned into the mammalian double expression vector pRSC-LacZ (MacFarlane et al., J. Biol. Chem., 272:25417-25420, 1997; Tsang et al., Bio/Technology, 22:68, 1997) or as previously described (Li et al., Cell 91:479-489, 1997; Srinivasula et al., J. Biol. Chem., 272:18452-18545, 1997). This vector allows the expression of lacZ under the Rous Sarcoma virus promoter, and the test cDNA under the CMV promoter. To assay for apoptosis, MCF-7 or 293 cells were transfected, using the method commercially available as the Lipofect Amine method (Life Technologies, Inc.), with the pRSC-LacZ constructs in the presence or absence of different apoptosis-inhibitors. 30 h after transfection cells were stained with β-galactosidase and examined for morphological signs of apoptosis. The percentage of round blue apoptotic cells (mean±SD) were determined by phase contrast microscopy and then represented as a function of total blue cells under each condition (n≧3).

[1] = tested on: apoptosis induced by the proapoptotic members of the Bcl-2 family; settings: Hegde et al. 1998; Li et al. 1997; cited from earlier work
procaspase-3 = assay: Cytochrome c/dATP-dependent processing of procaspase-3 in 293 cellular S100 extract; format: biochemical; settings: 293 S100 extract, increasing amounts of purified protein, 1 hour at 30° C., dose-dependent, FIG. 18
Description: (§1) To confirm this, a time course analysis of procaspase-9 and procaspase-3 processing was performed in cellular S100 extracts from 293 and MCF-7 cells. […] At the indicated times the reactions were stopped and then analyzed by SDS-PAGE and autoradiography (procaspase-9 panels) or Western blot analysis using anti-caspase-3 p20 polyclonal antibody (procaspase-3 panels). Small arrows indicate a non-specific band detected by the anti-caspase-3 antibody.
In FIG. 8, ^35S-labeled procaspase-3, -6 or -7 were incubated with S100 extracts from 293 cells in the presence or absence of cytochrome c/dATP or DEVD-CHO, or both and analyzed by SDS-PAGE followed by autoradiography. However, when DEVD-CHO was included, processing of procaspase-6 (lane 6), but not procaspase-3 (lane 3) or -7 (lane 9) was inhibited. […] Also, since caspase-7 cannot process procaspase-6 (Srinivasula et al., J. Biol. Chem. 271:27099-27106, 1996), caspase-3 is the one responsible for processing of procaspase-6 in the cytochrome c plus dATP-dependent pathway.
(§2) In FIG. 18, 293 cellular S100 extracts supplemented with ^35S-labeled procaspase-9 (upper panel) or procaspase-3 (lower panel) were incubated with (lanes 3-7) or without (lane 2) cytochrome c plus dATP in the presence of increasing amounts of purified recombinant procaspase-9-C287A mutant for 1 hour at 30° C. and then analyzed by SDS-PAGE and autoradiography. […] Consequently, the Apaf-1/caspase-9 pathway appears to be a central apoptotic pathway, on which most apoptotic signals converge.

procaspase-9 [2] = molecular target: T1, procaspase-9 (Homo sapiens, UniProt P55211); assay: In vitro caspase 9 activation assay: recombinant Apaf-1 variants incubated with in vitro translated procaspase-9; format: biochemical; settings: in vitro reconstituted system, data not shown
T1 construct: schematic representation of full length procaspase-9; made in house; host or cells: coupled in vitro transcription/translation in rabbit reticulocyte lysate (TNT Kit, Promega)
T1 sequence (P55211 1-416): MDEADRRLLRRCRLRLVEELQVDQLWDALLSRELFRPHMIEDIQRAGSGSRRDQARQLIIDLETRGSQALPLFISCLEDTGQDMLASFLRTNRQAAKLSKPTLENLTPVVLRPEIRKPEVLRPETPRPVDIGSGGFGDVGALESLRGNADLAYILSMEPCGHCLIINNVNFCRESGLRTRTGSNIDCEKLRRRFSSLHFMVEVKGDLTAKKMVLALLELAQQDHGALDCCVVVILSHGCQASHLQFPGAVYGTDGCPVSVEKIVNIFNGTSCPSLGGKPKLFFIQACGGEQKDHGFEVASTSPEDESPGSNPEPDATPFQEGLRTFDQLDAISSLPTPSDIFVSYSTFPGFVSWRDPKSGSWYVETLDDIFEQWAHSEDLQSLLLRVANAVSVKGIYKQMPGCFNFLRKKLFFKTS
Description: SDS sample buffer was then added to each sample, boiled and subjected to SDS-PAGE analysis followed by autoradiography. In FIG. 2A procaspase-9 was in vitro translated in the presence of ^35S-methionine. Following translation procaspase-9 was desalted by gel filtration through a biospin column (BioRad) to remove unincorporated methionine and free nucleotides. Desalted procaspase-9 was then incubated with 200 ng Ni^2+-affinity purified bacterially expressed recombinant Apaf-530 (WT or K149R mutant) in the presence or absence of cytochrome c or dATP or both for 2 h at 30° C. A mock sample containing Ni^2+-affinity purified material from bacteria transformed with an empty vector was used as a negative control. Following incubation the products were analyzed by SDS-PAGE and autoradiography. In FIG. 2B^35S-labeled procaspase-9 (as described above) was incubated with bacterial lysates containing truncated Apaf-1 variants as indicated and then analyzed as above (2B upper panel). The bacterial lysates were analyzed by SDS-PAGE and immunoblotted with an Apaf-1 antibody which recognizes the N-terminus of Apaf-1 (lanes 2-6) and an anti T7-tag antibody (lanes 7-8) to confirm expression and equivalent concentration of the different Apaf-1 variants (2B lowerpanel). The molecular mass markers are indicated to the right of the lower panel.
^35S-labeled caspases were obtained by in vitro translation in the presence of ^35S-methionine using a coupled transcription/translation system in rabbit reticulocyte lysate using TNT Kit (Promega) according to the manufacturer's recommendations.
To determine the role of the WD-40 repeat in the mechanism of Apaf-1-induced processing of procaspase-9, truncated Apaf-1 (Apaf-530) lacking its WD-40 repeats (FIG. 1) was expressed and purified. To reconstitute a recombinant caspase-9 activation system, the truncated Apaf-530 was incubated with in vitro translated recombinant procaspase-9 in the presence or absence of cytochrome c and dATP. […] It was previously shown that mutation of CED-4 K165R which is required for nucleotide binding destroys its activity (Chinnaiyan et al., Nature 388:728-729, 1997; Jarnes et al., Curr. Biol. 7:246-252, 1997; Seshagiri and Miller, Curr. Biol. 7:455-460, 1997). […] Therefore, either binding of Apaf-1 to cytochrome c and dATP or deletion of the repeats could induce a conformational change enabling Apaf-1 to bind and process procaspase-9.
In FIG. 3, ^35S-labeled WT or mutant D330A, D315A or C287A mutants of procaspase-9 or prodomainless procaspase-9 (Δpro, residues 134-416) were incubated with buffer (lanes 1, 4, 7, 10, 13), purified Apaf-530 (lanes 2, 5, 8, 11, 14) or mock purified material (lanes, 3, 6, 9, 12, 15) and then analyzed by SDS-PAGE and autoradiography.

procaspase-9 [3] = assay: Cytochrome c/dATP-dependent processing of procaspase-9 in 293 cellular S100 extract; format: biochemical; settings: 293 S100 extract, increasing amounts of purified protein, 1 hour at 30° C., dose-dependent, FIG. 18
Description: To study processing of procaspase-9 in the cytochrome c/Apaf-1-dependent pathway, WT and the Asp to Ala mutants of procaspase-9 were incubated with a cellular S100 extract in the presence or absence of cytochrome c and dATP. […] Samples were then analyzed by SDS-PAGE and autoradiography.
as §1, §2

B1: Caspase-9-DN: dominant negative procaspase-9-C287A mutant (protein)
chain: T1 sequence (P55211 1-416) with C287A
inhibition of apoptosis (MCF-7 cells; TRAIL, or overexpression of DR4 and DR5, FIG. 17): can also inhibit apoptosis
inhibition of apoptosis (MCF-7 cells; TRAIL, or overexpression of DR4 and DR5, FIG. 17, listed as dominant negative caspase-9 mutant): as efficient as that observed with Bcl-xL or X-IAP
inhibition of apoptosis induced by the proapoptotic members of the Bcl-2 family [1]: can inhibit apoptosis
attenuation of cytochrome c/dATP-induced activation of procaspase-3 (procaspase-3): able to attenuate
attenuation of Apaf-530-induced activation of procaspase-9 (procaspase-9 [2]): A similar result
attenuation of cytochrome c/dATP-induced activation of procaspase-9 (procaspase-9 [3]): able to attenuate
